Measurements as given in patent US20220235132A1 (ANAPTYSBIO, published 2022).
Where a chain is given by its changes, count along the chain named. Names may count otherwise. “And” between values parts separate entries of the source, which are not always exact repeats. Equal entries are not always repeated.

Legend:
[1] = target: T1, cynomolgus PD-1 (as used in KinExA) (cynomolgus monkey); assay: KinExA (kinetic exclusion assay)
T1 construct: also called Cynomolgus PD-1 KD (KinExA)

[2] = target: T2, human PD-1 expressed on cells (human, UniProt Q15116 25-288); assay: flow cytometry, 2-day anti-CD3/anti-CD28 activated human CD4+ T cells
T2 construct: whole, on cells; Used for all cell-based assays with human PD-1 (transfectants and primary T cells)
Method: Primary human peripheral blood CD4⁺ T cells were prepared using magnetic bead separation (CD4⁺ T Cell Isolation Kit, Miltenyi Biotec, Auburn, Calif.) of peripheral blood mononuclear cells (PBMCs) and activated for 48 hours with plastic-coated anti-CD3 and anti-CD28 in 6-well plates. Cells (1×10⁵ per sample) were washed and stained in V-bottom 96-well plates with the indicated concentrations of each antibody for 30 min at 4° C. with gentle shaking, centrifuged and washed once. Cells were fixed in 4% paraformaldehyde in PBS for 10 min at room temperature, washed, and antibodies detected with Alexa Fluor 647-conjugated F(ab′)2 goat anti-human IgG Fc (Jackson ImmunoResearch, West Grove, Pa.) for 10 min at 4° C. Cells were washed, resuspended, and bound antibody fluorescence quantified on a BD FACSArray™ (BD Biosciences, San Jose, Calif.). Data were analyzed for geometric mean fluorescence intensity (MFI) using FlowJo® analysis software (FlowJo, LLC). ECso values were determined in GraphPad Prism 7.02 (GraphPad Software) using a log(agonist) vs. response—Variable slope (4 parameters) curve fit.

[3] = target: T3, biotinylated human PD-1 extracellular domain monomer (human, UniProt Q15116 25-170, biotinylated (site not stated)); assay: SPR (Biacore T200), biotinylated PD-1 ECD monomer captured on SA chip
T3 construct: extracellular domain; Captured on a streptavidin sensor chip for SPR; also called Human PD-1 (SPR)

[4] = target: T4, biotinylated cynomolgus monkey PD-1 extracellular domain monomer (cynomolgus monkey, UniProt B0LAJ3 25-170, Biotinylated; neither the site nor the method is stated, and the letters do not carry it.); assay: as above
T4 construct: Captured on a streptavidin sensor chip for SPR; also called Cynomolgus PD-1 (SPR)

[5] = target: T5, cynomolgus monkey PD-1 expressed on cells (cynomolgus monkey, UniProt B0LAJ3 25-288); assay: flow cytometry, HEK 293 cells stably expressing cynomolgus monkey PD-1
T5 construct: also called cynomolgus PD-1; PD-1 on stably transfected HEK 293 cells
Method: HEK 293 cells were stably transfected to express either human PD-1 or cynomolgus monkey PD-1. Cells were harvested by Accutase™ treatment (Innovative Cell Technologies, San Diego, Calif.), the cells expressing cynomolgus monkey PD-1 were treated with the lipophilic fluorescent dye Vybrant® DiD (ThermoFisher Scientific, Carlsbad, Calif.), and then mixed with an equal number of unlabeled HEK 293 cells expressing human PD-1. Cells (2×10⁵ total per sample) were stained with the indicated concentrations of each antibody for 40 min at 4° C. with gentle shaking, centrifuged and washed once. Cells were fixed in 2% paraformaldehyde in phosphate-buffered saline (PBS) for 10 min at room temperature, washed, and antibodies detected with Phycoerythrin (PE)-conjugated goat anti-human kappa (Southern Biotechnology, Birmingham, Ala.) for 15 min at 4° C. with gentle shaking. Cells were washed, resuspended, and bound antibody fluorescence quantified on a BD FACSArray™ (BD Biosciences, San Jose, Calif.). Data were analyzed for median fluorescence intensity (MFI) using FlowJo® analysis software (FlowJo, LLC). ECso values were determined in GraphPad Prism 5.0 (GraphPad Software) using a log(agonist) vs. response—Variable slope (4 parameters) curve fit. The results are shown in FIGS. 1 and 2, and the ECso values are set forth in Table 2 (human) and Table 3 (cynomolgus monkey). […]

[6] = target: T2, human PD-1 expressed on cells; assay: cell-based or functional assay
[7] = target: T4, biotinylated cynomolgus monkey PD-1 …; assay: SPR screening (method taken from paragraph 169), N = 2
Method: KD measurements for screening by Surface Plasmon Resonance (SPR) were performed on a Biacore T200 (GE Healthcare Life Sciences, Pittsburgh, Pa.), and kinetic constants were fit globally using a 1:1 binding model. Biotinylated human or cynomolgus monkey PD-1 extracellular domain monomer was captured at a 1 nM concentration on a Biacore Sensor chip SA (GE Healthcare Life Sciences, Pittsburgh, Pa.), with a carboxymethylated dextran surface pre-immobilized with streptavidin. The captured antigen level was targeted to yield a low response to prevent avidity effects on the dissociation rate. Tm measurements were determined by fluorescence-based thermal shift and differential scanning calorimetry.

T5 sequence (B0LAJ3 entry or part of it limits assumed): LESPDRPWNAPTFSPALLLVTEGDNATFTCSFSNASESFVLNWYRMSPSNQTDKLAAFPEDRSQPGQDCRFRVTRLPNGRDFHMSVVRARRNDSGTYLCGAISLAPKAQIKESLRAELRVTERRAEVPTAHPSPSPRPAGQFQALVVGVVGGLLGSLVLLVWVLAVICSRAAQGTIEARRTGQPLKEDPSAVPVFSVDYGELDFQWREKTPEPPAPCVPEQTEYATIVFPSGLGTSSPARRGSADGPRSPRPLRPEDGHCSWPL
T2 sequence (Q15116 25-288): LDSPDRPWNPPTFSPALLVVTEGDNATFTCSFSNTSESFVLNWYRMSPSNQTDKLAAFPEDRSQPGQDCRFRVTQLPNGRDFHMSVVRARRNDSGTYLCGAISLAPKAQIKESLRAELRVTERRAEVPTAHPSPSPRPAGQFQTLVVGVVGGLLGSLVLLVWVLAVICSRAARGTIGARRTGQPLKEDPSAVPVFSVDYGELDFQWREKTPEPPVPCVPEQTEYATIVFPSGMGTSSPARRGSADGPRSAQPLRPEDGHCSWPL
T4 sequence (B0LAJ3 entry or part of it limits assumed): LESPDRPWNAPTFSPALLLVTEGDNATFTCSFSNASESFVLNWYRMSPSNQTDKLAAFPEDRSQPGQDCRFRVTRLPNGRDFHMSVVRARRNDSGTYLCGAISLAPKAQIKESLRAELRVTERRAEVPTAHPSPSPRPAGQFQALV
T3 sequence (Q15116 25-170): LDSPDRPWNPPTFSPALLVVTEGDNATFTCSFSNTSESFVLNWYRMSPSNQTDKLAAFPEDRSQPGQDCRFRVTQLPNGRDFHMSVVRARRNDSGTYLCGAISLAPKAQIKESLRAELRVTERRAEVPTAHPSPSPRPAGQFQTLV

B1: APE12043 (437M5-112 anti-PD-1 antibody, ExpiCHO-S transient) (antibody, V domains shown)
VH: QVQLVQSGAEVKKPGASVKVSCKASGYTFTSYSMHWVRQAPGQGLEWMGYINPSSGFTNYIQKFRDRVTMTADKSSSTAYMELSRLRSDDTAVYYCARDYYGRYYYVMDYWGQGTTVTVSS
VL: DIQMTQSPSSLSASVGDRVTITCTASSSVSSSFLHWYQQKPGKAPKLLIYSTSDLASGVPSRFSGSGSGTDFTLTISSLQPEDFATYYCHQYHRSPLTFGGGTKVEIKR
notes: detected with anti-human kappa; Only variable regions are tied to APE12043; the suffixes .02 to .05 are lots; also called APE12043.02; APE12043.03
[1]
  Kd: 0.21 nM
[2]
  EC50: 2.99 nM and 3.06 nM
[3]
  Kd: 0.031 nM
[4]
  Kd: 0.09 nM
[5]
  EC50: 3.69 nM and 2.69 nM and 2.59 nM

B2: APE12538 (437M5-112 anti-PD-1 antibody, CHO-S sorted stable pool) (antibody, human IgG1, kappa, V domains shown)
VH: B1 VH
VL: B1 VL
notes: also called APE12538.01
[4]
  Kd: 0.217 nM

B3: APE12890 (3.7C6 anti-PD-1 antibody, CHO-S) (antibody, human IgG1, kappa, V domains shown)
VH: QVQLVQSGSELKKPGASVKVSCKASNYTFTDYSMHWVRQAPGQGLEWMGWINIETYYPTYADQFKGRFAFSLDTSVSTAYLQISSLKAEDTAVYYCARDYYGRFYYAMDYWGQGTTVTVSS
VL: EIVLTQSPATLSLSPGERATLSCTASSSVSSSYFHWYQQKPGQAPRLLIYSTSNLASGIPARFSGSGSGTDFTLTISRLEPEDFAVYYCHQYHRSPLTFGGGTKVEIKR
[6]
  median IC50 for IFN-γ inhibition, human whole blood tetanus toxoid recall assay: 0.053 nM
  median IC50 for IL-17A inhibition, human whole blood tetanus toxoid recall assay: 0.097 nM

B4: APE12095 (3.7C6 anti-PD-1 antibody, ExpiCHO-S transient) (antibody, V domains shown)
VH: B3 VH
VL: B3 VL
notes: detected with anti-human kappa; Only variable regions are tied to APE12095; suffixes are lots; also called APE12095.03; APE12095.04
[1]
  Kd: 0.45 nM
[4]
  Kd: 0.244 nM
[5]
  EC50: 7.99 nM and 6.17 nM and 7.47 nM

B5: APE12537 (3.7C6 anti-PD-1 antibody, CHO-S sorted stable pool) (antibody, human IgG1, kappa, V domains shown)
VH: B3 VH
VL: B3 VL
notes: also called APE12537.01
[7]
  Kd: 0.64 nM
[4]
  Kd: 0.445 nM

B6: 030-13263/030-13264 (CDR-grafted) (antibody, V domains shown)
VH: B3 VH with I53A, Q63D
VL: B3 VL
notes: CDR-grafted forerunner of APE12537; APE12537 differs from it by A52aI and D62Q (Kabat) in the heavy chain
[7]
  Kd: 1.02 nM
